Biological target: KDM4E (human)

| KM of KDM4E catalysed demethylation, formaldehyde dehydrogenase (FDH) coupled assay [µM] | Substance |
| --- | --- |
| 20.7 | H3(1–21)R2me2a (from UniProt P68431 2-22) (peptide) |
| 5.18 | H2a(1–20)R3me2a (from UniProt P0C0S8 2-21) (peptide) |

Reference: publication PMC11603075
